The results in this text go back to the domain aggregation screens of Martell et al. (2025).

This series can be described thus: soluble fraction after stress (log2 fold change); higher = more stays soluble; pooled small domains, quantitative proteomics. Particulars: stress: pH 4. In outline: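 Aggregation propensity is read out as the fold change in how much of each domain remains soluble after acid stress. The custom small-domain libraries were pooled, held at pH 4 and analysed with high-throughput quantitative proteomics. On the log2 scale used, higher values mean more of the domain stayed soluble.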

As for “HMSLDAAAVASKLIKRLSKSPGRRFALDDLAVDVGLPHEQGRPLVRSALELLVRTQQAVEGPPNVFRLFF”, the “soluble fraction (log2)” value was -0.17.
In the case of “HMSLEDMILSLSSRIRRGESLHFRELLVAIETKSGMVTIFMAVLELLKQQVMEMRYEDDDIIFT”, the “soluble fraction (log2)” value was -0.567.
The same measure for “HMSLEEIPLEERLGPGGLDPVAVYDSLPREMRDAFDSGSVSALREFVNALPAEDAARHMKAMVDSGLWVPT”: -0.794; for “HMSLETRRYQLPRTDAQTASGLLRSLSGLPGVREVNLSGEGVAYLKVDSKGFDEQNVIKLLAGE”: -0.0727.
For “HMSLHSITIPQEFIGAVIGPGGKVIQEIQKQTGTTITITEKDNKGYVDIFGEDKGALDSALARIKEIVAIP”, the “soluble fraction (log2)” value was -0.277.
The same measure for “HMSLIDYLNELMNEKNITVAQVAKNSGIGEYVYKIFNGERNAKRDTLVAISFGMHLNFEETQLLLRIA”: -0.98; for “HMSLPALALRQADSLAFKQVIYHDRVVPFNTLARDFVLKLTGKPSYGGMTPEQVVGGWLLRPEVWQNEPM”: 0.00403.
Turning to “HMSLPAYIKISEVIARRINAGQILAGDRLPNERTMAVEFGVAVGTLRKALYHLQVRGLVTRKHGSGNYINK”, the “soluble fraction (log2)” value amounted to 0.249.
As for “HMSLPKIVVPTDVTVSQLAKYLEVDAISIIKQLFGMGVVASLNQRLEDEIIQLIGNEFGKEIIFSE”, the figure is -0.107; as for “HMSLPQSKDAVITILRTLPQLDTRAPEVYKLLGPHALDIILEDPEQVAKKINHVGVATAKLWQQALLGFK”, 0.198.
Regarding “HMSLQDYYQVLGVFYNAGDKEIKRRWKELINQYHPDLAQAKGASPEEIENYTLKMAEINNAYEQIMKSRKA”, the “soluble fraction (log2)” value was found to be 0.0253.
Take “HMSLSASELDQLRMMTKVSHMYHTRGMVQIDIARSLGLSQARVSRLLSAAEDANIVRTVVVA”: the “soluble fraction (log2)” value was -0.177.
Consider “HMSLTAQVFTDRGKVLLSENKFTEAIDQFTKALAMDKVYIEALNRRIEAYQHLGLTELAAKDEALLGTL”, for which the “soluble fraction (log2)” value is -1.01.
As for “HMSLTPSQDANRSAILDAARDLFARYGFKKTTMEDIAMALRKGKSSLYYYFKNKEDIFQAVIDS”, the figure is -0.0869; as for “HMSMDAVSLANRLLRFFQKRPGRKFTAADLAFETGMNERTGKSLVTSALEILSRTNQIEADGDGFRLKM”, 0.243.
The same measure for “HMSMEIQEIIRQLREKNDWSQEDMAERVGLSKNGYAKIERGETNLNLERLEQIANLFDLSVIDLIEMS”: -1.03.
As to “HMSMEKNWVPSEDVIEILTRAGMNENFIRELIPEFIIYWSERKDVLISYDSKFIEHARLKWAQHNAE”, the “soluble fraction (log2)” value was 0.0608.
Consider “HMSMFTPAQVAQTLTVPPSTLRRWAKRFAPFLSPQSGKKRTYTVADLDTFQRIKELSAQGYTFAQIDQAL”, for which the “soluble fraction (log2)” value was -0.101.
Take “HMSMLSQERQSLILDIIKEQGSVTVTRLTEILQSSESTVRRDLSYLASKGKINKVHGGATALG”: the “soluble fraction (log2)” value was -0.306.
“HMSMNGNMIHATVIWKGRYFLVKMFFPQLTKPKRAEVQAQIEKAYPGSRVASYHITDYKPGEQFLHV”: the “soluble fraction (log2)” value was -0.156.
As for “HMSMPEVLSDRELEIFRMIGTGMSTGDIAKKLNISVNTIESHRKKIKDKLGIQKGSELVKAAVQWVSTQQ”, the figure is -0.219; as for “HMSMSVLFSELDQKDAGVIVEKLKERKIPYELQSGGSAIMVPANVLHETRLQLAAEGLPQSS”, 0.0876; as for “HMSMTVHGALRLLQLPTIADRPYTLKEIREAYREQAQNHHPDAGGSADAMRRLNEAYQFLKERYRQA”, -0.0331.
With “HMSNEKVVKFAQELLVDEERSAISPALISAKIDQVLMFKPAWNEGLDRDAVVNELVRRFSIW”, the “soluble fraction (log2)” value was -1.19.
In the case of “HMSNGFFELKTSQQDELIDLIDSHTNFVRTKIEGELITAFLKLPMDAEEFNKLLFTNGIILSHLVKRK”, the “soluble fraction (log2)” value is -1.07.
Consider “HMSNIIGNTAYSAIPDKQYFRLKSETAEKVANYLTENNIPFSGRINGDKTTLTIGQKNVDDYKAAVATVTG”, for which the “soluble fraction (log2)” value was 0.304.
Regarding “HMSNIVNYEVYVYQNDAWDLLARYPSEKRAEAIEYAKSTEFSLNRPTKVIRETYDLDTQKFQEALIYLSE”, the “soluble fraction (log2)” value was -0.304.
Consider “HMSNLNHSFQYKKNIGRKISLTYLGRDNESISKIYELIDSNDSGILVKNKNVEIFIHYEKIVSAKIKVS”, for which the “soluble fraction (log2)” value is -0.213.
Consider “HMSNLTDLVSAKEAEVYLHFLESGSTAGMTEAELRAVRKIEELIQSNKIDYNGILRIRNETVK”, for which the “soluble fraction (log2)” value is -0.137.
Consider “HMSNNLAYSQFLDRVKNKEIRKVEIRGQSIVGYTSNNETFKTYAPLNDPKMYDELLTNDVQVQVDPP”, for which the “soluble fraction (log2)” value was determined as 0.0357.
Turning to “HMSNQLAVPDVTNMKANAAADRLRQQGLRVELKTESSNTVPRGMAIRTDPAASTMVARGGRVTLIISSGKG”, the “soluble fraction (log2)” value is -0.0724.
For the sequence “HMSNSGFVKNNGKTEFYDASGRQAKSSWINISGKWYYFDLNGTMVTGWQRISNKWYYFLEDGSK”, the “soluble fraction (log2)” value came out at 0.342.
For the sequence “HMSNSMISKDKAMSIALAKVSGATSSNIYIELEKDDGRYTYEGEINFNNKEYEFEIDAYTGNILKWEVDSI”, the “soluble fraction (log2)” value was -0.0257.
Take “HMSNTPHSREVLLEMDAVRRLLAVGEEKGEVDRADLQGAFEEAELGRGDLDGVLSILREYDVPLAR”: the “soluble fraction (log2)” value was -0.15.
In the case of “HMSNVIYFNYNDYKFLFMGDAGVDKETDILEKYTLSNIDFLKVGHHGSDTSSNKGFIDSIQPKYSLIS”, the “soluble fraction (log2)” value is -1.42.
As to “HMSNWTILIIQGSAHLIDLDSKITEIDGFGSFPTKILQDYNLNEEFEIFDTNVKMVNSVQSDLQSN”, the “soluble fraction (log2)” value is -1.97.
For the sequence “HMSNYIVELSSSEKIDDIDNNNNLINSFFSKSDSQWEYKLVFKNKNEMDVFVKKISTNNKIISYKTSS”, the “soluble fraction (log2)” value is -0.106.
Regarding “HMSPAETGIYHILVENGKPNRHGLDATNKNENWLRQFLITQNTRLEDVFLLLADDGGGIRFFKSQ”, the “soluble fraction (log2)” value is -0.658.
“HMSPAPVSVDHLAFPTRDLEATDHFYSKVVGATLVHAESGYSPSWKSDYLLITYALPDGTRLSFFDWP”: the “soluble fraction (log2)” value is -0.133.
“HMSPDTREAILAAARTAFARDGYQTSLRGIARDAGVDPALVHHYFPDRATLFAKAVIESTAG”: the “soluble fraction (log2)” value was -0.047.
Take “HMSPFAHHLHELRMRHGIRQNELAELIGYDQTYISALEVGLKGPPTPEFVDKLVEGLALSRTEEAALRSAA”: the “soluble fraction (log2)” value is -0.562.
The same measure for “HMSPFYALDEVDSFLDGVNVERLAALIARQAEQAQFLVVSHRRPMIGASTRTIGVTQARGAHTQVVGLP”: -0.872; for “HMSPGAKIEVTGNTVNLRAGPGTNYDTRGQVKKGEQLPLLGEQGGWYRVQTSRGVAYLAGWLARVLT”: -0.0378; for “HMSPLDSHLGRRIALRRQQLNTSAADLEKAISMVPGSVARFEAGRQSLNATQLFTLSRALDVPVLYFFEG”: -0.418.
The same measure for “HMSPREDQQSRKQHILEAAAVLFAERGYYKTTTADVARAVGVTQPYVFHFFKSKEELYLAVL”: 0.219; for “HMSPSDLSAEAQKVYALLDGRELSFDTLVEESGFDTGSLLAILMRLEMKMLVEHGADQVYRRSG”: -0.98.
For the sequence “HMSPVKAPLPGVVLDIHVSVGQEVKASDTVVTLEAMKMENAIKAGVDGKVASISVGKGDSVLEGAVLLTI”, the “soluble fraction (log2)” value turned out to be 0.322.
In the case of “HMSQAVTMLKAGRLLANSKGTGAAVRDLEPGMLLYPTGQKDGTMWEVEDEMGNKGWVNSTSMQLA”, the “soluble fraction (log2)” value turned out to be 0.395.
In the case of “HMSQDEKITNYIYEGNKNTQTEAFVEAEKSYRKALSLSPEKPEALYNLGNTHFLDKQYDEASQRFF”, the “soluble fraction (log2)” value was -0.111.
Consider “HMSQDINVFIKTNPENATIIWDGESKGTNGIFKSNAGAHRLRIEMQGYESIDQDIQVSDKQFSFEYNLKKE”, for which the “soluble fraction (log2)” value is 0.22.
For “HMSQIANLLLSKNIKVNNQNIIYYETVLKYLPNNEKKEFFINAMKNNIYFTEEEIKNFGNIFN”, the “soluble fraction (log2)” value was -0.786.
“HMSQIQIKLDQAIMQLPEKQRFVFMLRYFEELPYEKIAQITETSIGGAKANFHQALKKMQEIIQ”: the “soluble fraction (log2)” value is -0.397.
With “HMSQKVQEDFLGDIRKNEIAVTVFLINGVKLQGVITWFDDASILLRRDGHTQLIYKHAVSTIMPGVAVDI”, the “soluble fraction (log2)” value was -0.632.
Take “HMSQLYINATDDGWVIGNLPADAREVLLTTLGGQVVARYHVTAPSLRVKAPRKGVYIVSVETA”: the “soluble fraction (log2)” value is -0.0877.
As to “HMSQQVVTDGVNLRLRYAPSPDAETYKWADGTNRHPEKGERFPYLGDIGDFYRIDYKGLVLYVSKQHTHL”, the “soluble fraction (log2)” value was -0.34.
On to “HMSQRITYTEFVQMVKDDKVEKVEVGANQYNITPKSDDKTLVKMTYYTGFIKDENLLDLLNKHKVEIDGYI”, for which the “soluble fraction (log2)” value was found to be 0.169.
For “HMSQSIGQEKALSIALADAGVQKENALGLEVKGEYDDGQLLYEVEFRAGGVEYEYEVRASDGRIVKAERD”, the “soluble fraction (log2)” value was determined as 0.0913.
Turning to “HMSQSMEVLYTDLTDKDAAAIVEKLEEEKIPYQLEDQGTTILVPPGVKYTTRLKLAAEDLPKG”, the “soluble fraction (log2)” value came to 0.178.
For “HMSQYVPDPVLNAALVGYLDFRKQAGKPMTDYSIRLLLVDLAKLSGNPQEQAAILDQSTKNNWIGVYALG”, the “soluble fraction (log2)” value is -0.326.
“HMSRAARLALDALPDEWAQFAESRGLAGSAMAETWETFRDYWQAQPGQKGVKADWAATWRNWVRRETQNRG”: the “soluble fraction (log2)” value was -0.074.
As for “HMSRDYKTELQERLQVNGPVKIEYQVIAEDESKPSFKVQLLVNDKKISEGQGRNKKAAEQQAAQAAL”, the figure is 0.0788; as for “HMSREEFLTELRKALQGRVSQQTVNDNLRYYEEYILTESHKGKTEAEVIAELGNPRLLAKSIIDAENAT”, -0.0903; as for “HMSRESNISTGRQLLEAQLPTWGYKKVEDIPSKQMKTALDAFNYKDVESLLQGLGEGSVALTTALRRLMP”, -0.926.
The same measure for “HMSRFLEGILQRRAGGKNYFVPDDGSNPIFIADRNSAGAANGDRVRIAQFARRPRSGPEGEVVEILKRAK”: 0.153.
As to “HMSRGAIVTGTVIEKNQSGIYVDLGYKSDGIVPIEEFDGEESKYNVGDQIRVYVKKVDDGHGQLML”, the “soluble fraction (log2)” value is -0.135.
With “HMSRGTRIDPNWQPSPEDRALARAEGFSDPEIDREALQFRDYWLGASGSNAVKLDWSATWRNWVRRAATNF”, the “soluble fraction (log2)” value is -0.204.
On to “HMSRKERERSQHRRDILAAGEKIFAQKGYFNATIEEIAREAEFSVGTIYNFFSNKETLYQEIIRSI”, for which the “soluble fraction (log2)” value was -0.43.
Take “HMSRLQDAELQAQIDKMAGAMQLRDIPVYVQDIPTINGLAAPDGRVFITQGFIDKYKLGEVSAGEIASVI”: the “soluble fraction (log2)” value is 0.316.
Turning to “HMSRPLISNMLRLLNLPPTVQRKVAAGVISAGHARALLGLNDEKEIEKLANRIVAEGLSVRATEEIVAIA”, the “soluble fraction (log2)” value was -1.28.
